Sequences and labels used below:
B1: Ab 360 (antibody, V domains shown)
VH: VVQLQQSGPELVKPGASVKMSCKASGYTFTSYLMHWVRQKPGLGLDWIGYINPYNDGTNYNAKFIDKATLTSDKTSSTAYMELSSLTSEDSAIYYCTRGDYWGQGTSVTVSS
VL: DIVMTQSPSSLAVTAGEQVTMSCKSSQSLLNSGNQKNYLTWYQQKPGQPPKLLIYWASIRQSGVPDRFTGSGSGTDFTLTISSVQAEDLAVYYCLNDYGFPLTFGAGTKLELK
notes: also called 360-Chim
B2: Ab 307 (antibody, V domains shown)
VH: DVKLVESGGGLVKPGGSLKLSCAASGFTFSSYTMSWVRQTPEKRLEWVATIIIGGSYTYYPDSVKGRFTISRDNAKNTLYLQMSSLKSEDTAMYYCTRLVKGNAMDYWGQGTSVAVSS
VL: DIVMTQSPSSLTVTTGEKVTMSCKSSQSLLNSGNQKNYLSWYQQIPGQPPKLLFYWASTRESGVPDRFTGSGSGTDFTLTISNVQAEDLAVYYCQNDYSYPFTFGAGTKLELR
B3: HuAb360-3 (antibody, V domains shown)
VH: QVQLVQSGAEVKKPGASVKMSCKASGYTFTSYLMHWVRQAPGQGLEWIGYINPYNDGTNYAQKFQGRATLTSDTSTSTAYMELSSLRSEDTAVYYCTRGDYWGQGTLVTVSS
VL: DIVMTQSPDSLAVSLGERATINCKSSQSLLNSGNQKNYLTWYQQKPGQPPKLLIYWASIRQSGVPDRFSGSGSGTDFTLTISSLQAEDVAVYYCLNDYGFPLTFGQGTKLEIK
B4: HuAb360-1 (antibody, V domains shown)
VH: B3 VH with M20V, A68V, L70M, A79V
VL: B3 VL
B5: HuAb360-5 (antibody, V domains shown)
VH: B3 VH with T74K
VL: B3 VL
B6: HuAb360-6 (antibody, V domains shown)
VH: B3 VH with T74K
VL: B3 VL with A19V, I21M, L84V
B7: HuAb360-2 (antibody, V domains shown)
VH: B3 VH with M20V, A68V, L70M, A79V
VL: B3 VL with A19V, I21M, L84V
B8: HuAb360-4 (antibody, V domains shown)
VH: B3 VH
VL: B3 VL with A19V, I21M, L84V
B9: Ab 432 (antibody, V domains shown)
VH: QIQLQQSGAELARPRASVKLSCKASGYTFTSDVISWVKQRPGQGLEWIGESYLRNGNTYYNENFKGKATLTADKSSSTAYMELRSLTSEDSAVYFCARSYYGNSFAYWGQGTLVTVSA
VL: DIVMTQSPSSLTVTAREKVTMNCKSTQSLLNSGNQKNYLTWYQQKPGQPPKLLIYWASTRESGVPDRFTGSGSGTDFTLTISSVQAEDLAVYYCQNAYYYPFTFGGGTKLEIK
notes: also called 432-Chim
B10: Zolbetuximab (Benchmark 3) (antibody, V domains shown)
VH: QVQLQQPGAELVRPGASVKLSCKASGYTFTSYWINWVKQRPGQGLEWIGNIYPSDSYTNYNQKFKDKATLTVDKSSSTAYMQLSSPTSEDSAVYYCTRSWRGNSFDYWGQGTTLTVSS
VL: B9 VL with R16G, N22S, T26S, A97D, Y99S, G106S
notes: also called zoletuximab
B11: HuAb358-2 (antibody, V domains shown)
VH: EVQLVESGGGLVQPGGSLRLSCAVSGFTFSSFGMHWVRQAPGKGLEWVAYISSGTTNIYYADSVKGRFTVSRDNAKNSLYLQMNSLRAEDTAVYYCVRSGYYGNSLDYWGQGTLVTVSS
VL: DIVMTQSPDSLAVSLGERVTMNCKSSQSLFNSGNQRNYLTWYQQKPGQPPKLLIYWASTRESGVPDRFSGSGSGTDFTLTISSVQAEDVAVYYCQNVYIYPLTFGQGTKLEIK
B12: HuAb432-1 (antibody, V domains shown)
VH: QVQLVQSGAEVKKPGSSVKVSCKASGYTFTSDVISWVRQAPGQGLEWMGESYLRNGNTYYAQKFQGRVTITADKSTSTAYMELSSLRSEDTAVYYCARSYYGNSFAYWGQGTLVTVSS
VL: B3 VL with S26T, I59T, Q61E, L95Q, D97A, G99Y, F100Y, L102F
B13: HuAb432-4 (antibody, V domains shown)
VH: B12 VH with V20L, M48I, V68A, I70L
VL: B11 VL with S26T, F30L, R36K, V97A, I99Y, L102F
B14: HuAb376-2 (antibody, V domains shown)
VH: EVQLLESGGGLVQPGGSLRLSCAASGFTFSSYTMSWVRQAPGKGLEWVATISSGVSYTYYADSVKGRFTISRDNSKNTLYLQMNSLRAEDTAVYYCTRLTKGNAMDYWGQGTLVTVSS
VL: B11 VL with F30L, R36K, V97D, I99S, L102F
B15: HuAb307-1 (antibody, V domains shown)
VH: B14 VH with S52I, S53I, V55G, T100V
VL: B3 VL with T40S, I59T, Q61E, L95Q, G99S, F100Y, L102F
B16: HuAb358-1 (antibody, V domains shown)
VH: B11 VH
VL: B11 VL with V19A, M21I, V84L
B17: HuAb432-2 (antibody, V domains shown)
VH: B12 VH
VL: B11 VL with S26T, F30L, R36K, V97A, I99Y, L102F
B18: HuAb432-3 (antibody, V domains shown)
VH: B12 VH with V20L, M48I, V68A, I70L
VL: B3 VL with S26T, I59T, Q61E, L95Q, D97A, G99Y, F100Y, L102F
B19: HuAb376-1 (antibody, V domains shown)
VH: B14 VH
VL: B3 VL with I59T, Q61E, L95Q, G99S, F100Y, L102F
B20: HuAb307-2 (antibody, V domains shown)
VH: B14 VH with S52I, S53I, V55G, T100V
VL: B3 VL with T40S, I54F, I59T, Q61E, L95Q, G99S, F100Y, L102F
B21: Ab 358 (antibody, V domains shown)
VH: VVQLVESGGDFVQPGGSRKLSCAVSGFTFSSFGMHWVRQAPEKGLEWVAYISSGTTNIYYADTVKGRFTVSRDNPKNSLFLHMTSLRSEDTAMYYCVRSGYYGNSLDYWGQGTPLTVSS
VL: DIVMTQSPSSLTVTAGEKVTMSCKSSQSLFNSGNQRNYLTWYQQKPGQPPKLLIYWASTRESGVPDRFTGSGSGTGFTLTISSVQAEDLAFYYCQNVYIYPLTFGLGTKLELR
B22: 02-0307-5h antibody (antibody, V domains shown)
VH: B14 VH with S52I, S53I, V55G, T100V
VL: B11 VL with F30L, N31Q, R36K, T40S, I54F, V97D, I99S, L102F
notes: also called 02-h1F06-5h
B23: 02-0307-8h antibody (antibody, V domains shown)
VH: B14 VH with S52I, S53I, V55G, T100V, N103Q
VL: B11 VL with F30L, N31Q, R36K, T40S, I54F, V97D, I99S, L102F
notes: also called 02-h1F06-8h
B24: 02-0307-7h antibody (antibody, V domains shown)
VH: B14 VH with S52I, S53I, V55G, T100V, N103Q
VL: B11 VL with F30L, R36K, T40S, I54F, V97D, I99S, L102F
notes: also called 02-h1F06-7h
B25: 02-0307-11h antibody (antibody, V domains shown)
VH: B14 VH with S52I, S53I, V55G, T100V, N103S
VL: B11 VL with F30L, N31Q, R36K, T40S, I54F, V97D, I99S, L102F
notes: also called 02-h1F06-11h
B26: 02-0307-10h antibody (antibody, V domains shown)
VH: B14 VH with S52I, S53I, V55G, T100V, N103S
VL: B11 VL with F30L, R36K, T40S, I54F, V97D, I99S, L102F
notes: also called 02-h1F06-10h
B27: 02-0307-12h antibody (antibody, V domains shown)
VH: B14 VH with S52I, S53I, V55G, T100V, N103S
VL: B11 VL with F30L, N31S, R36K, T40S, I54F, V97D, I99S, L102F
notes: also called 02-h1F06-12h
B28: 02-0307-9h antibody (antibody, V domains shown)
VH: B14 VH with S52I, S53I, V55G, T100V, N103Q
VL: B11 VL with F30L, N31S, R36K, T40S, I54F, V97D, I99S, L102F
notes: also called 02-h1F06-9h

Changes are numbered by the printed parent chain.

The first assay concerns the target T1, human Claudin-18.2 (CLDN18.2) (human).
T1 construct: On cells: fused to GFP in engineered HEK293T cells (clone C12), endogenous in HUPT4 and SNU601 cells; also called human CLDN18.2
The assay can be described thus: FACS, 1.5 ug antibody, HUPT4 cells (endogenous CLDN18.2). Background: Flow cytometry measures light scatter and fluorescence of single cells or particles in a stream.
Experimental: FACS assays were carried out to determine relative antigen binding strengths of the humanized antibodies (at either 1.5 μg or 0.3 μg) for binding to CLDN18.2 as expressed by the indicated cancer cell lines.
For B1, the “FACS signal (relative antigen binding strength)” value was 26200.
Still for that read-out and setting: the result for B2 reads 34700; that for B3, 27400.
Consider B4, for which the “FACS signal (relative antigen binding strength)” value amounted to 26400.
Same read-out and setting: the result for B5 reads 28600; that for B6, 34600.
Regarding B7, the “FACS signal (relative antigen binding strength)” value came to 24900.
The same measure, in the same setting: under B8 stands 28000; under B9, 27900.
On the same count and under the same terms, the result for B10 reads 10600; that for B11, 29800.
On to B12, for which the “FACS signal (relative antigen binding strength)” value stood at 30600.
Still for that read-out and setting: under B13 stands 23100; under B14, 28300.
On the same count and under the same terms, under B15 stands 30200; under B16, 52700; under B17, 36100.
On the same count and under the same terms, the result for B18 reads 27100; that for B19, 29700.
B20: the “FACS signal (relative antigen binding strength)” value is 32500.
On the same count and under the same terms, the result for B21 reads 33300.

The next assay concerns the target T1, human Claudin-18.2 (CLDN18.2). Nature of the assay: flow cytometry; HEK293T CLDN18.2 over HEK293T parental [Cont.].
Experimental: (§1) The samples were then measured by Intellicyt® iQue Advanced Flow Cytometry Platform.
As for B22, the “ratio OE” value was 408.
Same read-out and setting: the result for B23 reads 166; that for B24, 326; that for B25, 40.
B26: the “ratio OE” value stood at 202.
Still for that read-out and setting: the result for B27 reads 183.
As for B28, the “ratio OE” value was determined as 273.

A further assay has the same target. Nature of the assay: FACS, 1.5 ug antibody, HEK293T-CLDN18.2 C12 clone cells.
In the case of B1, the “FACS signal (relative antigen binding strength)” value turned out to be 117000.
The same measure, in the same setting: the result for B2 reads 141000; that for B3, 157000.
Same read-out and setting: under B4 stands 120000.
With B5, the “FACS signal (relative antigen binding strength)” value stood at 138000.
Same read-out and setting: under B6 stands 159000; under B7, 138000; under B8, 149000.
On the same count and under the same terms, under B9 stands 161000; under B10, 109000; under B11, 122000.
On the same count and under the same terms, the result for B12 reads 97400; that for B13, 173000; that for B14, 119000.
With B15, the “FACS signal (relative antigen binding strength)” value is 126000.
On the same count and under the same terms, the result for B16 reads 131000; that for B17, 128000; that for B18, 88800.
Same read-out and setting: under B19 stands 140000.
Still for that read-out and setting: under B20 stands 133000; under B21, 139000.

For another assay the target is unchanged. The assay can be described thus: flow cytometry; HUPT4 over M202 [Cont.].
Experimental: as §1
B22: the ratio native was found to be 121.
Still for that read-out and setting: under B23 stands 12.2; under B24, 22.5; under B25, 1.52.
Same read-out and setting: the result for B26 reads 6.42.
Same read-out and setting: under B27 stands 9.89; under B28, 45.1.
